Assay [1] addresses T1, PRAME … (ALY) peptide in complex with HLA-A*0201 (HLA-A2) (human).
T1 construct: whole, on cells; Naturally processed and presented on PRAME+/HLA-A2+ cells (THP-1, OCI-AML2, RS4;11 HLA-A2+, primary AML blasts, SK-N-SH); no recombinant complex was used; also called PRAME ALY/HLA-A2; PRAME/HLA-A2 complex
Put plainly: flow cytometry on THP-1 cells, against isotype control. As for the experimental part:
(§1) Flow cytometry of xenograft cells. PE-conjugated Pr20 antibody was used to confirm PRAME expression on target cell lines and primary patient AML samples. Cell lines and primary samples were washed in 2% FBS in PBS, blocked with 20 ug/mL Fc receptor block (BD Pharmingen, catalog no. 564219) in PBS then stained with PE-conjugated anti-human Pr20 antibody and APC-conjugated HLA-A2 antibody for 20 minutes on ice. Labeled cells were washed with PBS and resuspended in 2% FBS/PBS prior to flow cytometric analysis.

Assay [2] concerns the target T1, PRAME … (ALY) peptide in complex with …. Briefly: flow cytometry on OCI-AML2 cells, against isotype control. As for the experimental part: as §1
Background: Flow cytometry measures light scatter and fluorescence of single cells or particles in a stream.

Data on one molecule can be found in patent publication US20240091260A1 (FRED HUTCHINSON CANCER CENTER, published 2024).

B1: Pr20 monoclonal antibody (antibody, V domains shown)
VH: QVQLVQSGAEVRKPGASVKVSCKASGGTFSSYAISWVRQAPGQGLEWMGRIIPILGIANYAQKFQGRVTITADKSTSTAYMELSSLRSEDTAVYYCARHYGQWWDYWGQGTLVTVSS
VL: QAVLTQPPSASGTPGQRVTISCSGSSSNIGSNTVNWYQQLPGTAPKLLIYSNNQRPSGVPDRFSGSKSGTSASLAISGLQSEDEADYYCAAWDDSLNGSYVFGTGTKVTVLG
notes: also called Pr20 mAb; Pr20 antibody
In the case of B1, the figures for the “MFI (fold change to isotype control)” value in assay [1] and in assay [2] were 2.75 fold and 5 fold, respectively.
